# Measured values as given in patent publication US20240218054A1 (MABLOC, published 2024).
# T1: recombinant YFV-17D DIII protein (Yellow fever virus, strain 17D, UniProt P03314 578-682)
# T1 construct: also called domain III
# T1 sequence: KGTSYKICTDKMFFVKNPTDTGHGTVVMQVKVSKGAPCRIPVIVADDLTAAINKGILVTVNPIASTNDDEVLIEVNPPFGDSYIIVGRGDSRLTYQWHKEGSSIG
# B1: ADI-49147 (antibody, V domains shown)
# VH: QVQLQESGGDLVQPGGSLRLSCAASGFTFSNYAMNWVRQAPGKGLEWVSAINRGGDSTYYADSVKGRFTISRDNSKNTLYLQMNSLRAEDTAVYYCAKDHGGKYGWWYFDLWGRGTLVTVSS
# VL: DIRVTQSPATLSVSPGERATLSCRASQSVSSNLAWYQQKPGQAPRLLIYDASNRATGIPVRFSGSGSGTDFTLTISSLQSEDFAVYYCQQYDNWPLTFGGGTKVEIK
# notes: full-length IgG; also called Antibody Number 2
# B2: ADI-45075 (antibody, V domains shown)
# VH: EVQLLESGGGLVQPGGSLRLSCAASGFTFSSYAMSWVRQAPGKGLEWVSVISDSGGSTYYADSVKGRFTISRDNSKNTLYLQMNSLRAEDTAVYYCAKDLRGVGGWYYFDYWGQGTLVTVSS
# VL: EIVLTQSPSSLSASVGDRVTITCQASQDISNFLNWYQQKPGKAPKLLIYDASSLETGVPSRFSGSGSGTDFTFTISSLQPEDIATYYCQQYDNLPLTFGGGTKLEIK
# notes: full-length IgG; also called Antibody Number 45
# B3: ADI-45113 (antibody, V domains shown)
# VH: QVQLVQSGGGLVQPGGSLRLSCAASGFTFSSYAMSWVRQAPGKGLEWVSAISGSGGSTYYADSVKGRFTISRDNSKNTLHLQMSSLRAEDTAVYYCAKDPKYSSGWWAFDYWGQGTLVTVSS
# VL: EIVMTQSPATLSVSPGERATLSCRASQSVSSNLAWYQQKPGQAPRLLIYGASTRATGIPARFSGSGSGTEFTLTISSLQSEDFALYYCQQYDDWPLFGQGTRLEIK
# notes: full-length IgG; also called Antibody Number 20
# B4: ADI-45090 (antibody, V domains shown)
# VH: EVQLVESGGGLVQPGRPLRLSCAASGFAFSSYGMHWVRQAPGKGLEWVALIRFDGTIKYYADSVKGRFTISRDNAKNTLYLQMSSLRAEDTAVYYCARDLEVGAEYLYYHYGMDVWGQGTTVTVSS
# VL: QPVLTQPPSASGTPGQRVTIFCSGSRSNIGTYTINWYQKLPGTAPKLLIYSNNRGPSGVPDRFSGSQSGTSASLAISGLQPEDEADYYCAAWDDSLNGWVFGGGTKVTVL
# notes: full-length IgG; also called Antibody Number 4
# Target: T1, recombinant YFV-17D DIII protein
# Test: BLI, recombinant YFV-17D DIII protein
row,Binder,binding result
1,B1,binds
2,B2,binds
3,B3,binds
4,B4,binds

# Target: T2, recombinant YFV E protein (soluble E, sE; YFV Asibi strain) (Yellow fever virus, Asibi strain, UniProt Q6DV88 286-678)
# T2 construct: also called YFV E antigen; YFV E monomer
# Test: BLI monovalent (IgG on tip)
# T2 sequence (Q6DV88 286-678): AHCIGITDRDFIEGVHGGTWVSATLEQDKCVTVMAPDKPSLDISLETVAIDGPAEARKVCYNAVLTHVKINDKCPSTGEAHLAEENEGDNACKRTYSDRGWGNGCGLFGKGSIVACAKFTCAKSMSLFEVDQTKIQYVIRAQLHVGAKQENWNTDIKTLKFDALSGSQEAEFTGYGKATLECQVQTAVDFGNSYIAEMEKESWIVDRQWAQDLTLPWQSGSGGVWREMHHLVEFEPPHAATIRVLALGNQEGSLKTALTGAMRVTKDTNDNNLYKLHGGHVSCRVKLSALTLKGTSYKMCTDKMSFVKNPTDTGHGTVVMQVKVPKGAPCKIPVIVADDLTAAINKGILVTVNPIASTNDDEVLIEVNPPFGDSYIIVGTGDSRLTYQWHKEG
row,Binder,Kd
1,B1,3.73 nM
2,B2,26.1 nM
3,B3,253 nM
4,B4,2.11 nM
